Data as given in the nanobody polyreactivity screen of Harvey et al. (2022).

Experiment: yeast display, Sf9 membrane polyspecificity reagent, FACS + sequencing; frameworks hold sequencing errors
Outline: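 In a synthetic yeast display library (Saccharomyces cerevisiae BJ5465), nanobody expression was induced with galactose for 36–48 hours. FACS gates were set low and high (top ~1%) using anti-HA fluorescence for expression and streptavidin fluorescence for binding of the Sf9 membrane reagent. Each polyreactivity label is drawn from the gate of origin.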

Sequence	polyreactivity (PSR sort gate)
QVQLVESGGGLVQAGGSLRLSSPASGSIFITYAMGWYRQAPGKESELVAAIRDSGDRTYYADSVKGRFTISRDNAKKTVYFQMNSLKPEDTAVYYCNARWQEPLKYDYWGQGTQVTVSS	low polyreactivity
QVQLVESGGGLVQAGGSLRLSSPDSGYIFLPYTMGWYRQAHGKERELVASITWRGTNTYYADSVKGRFTISRDNAKNTVYLQMNSLKPEDTAGYYCTKVPTYWDPNYYYWGQGTQVTVSS	high polyreactivity
QVQLVESGGGLVQAGGSLRLSTAASGIIFWYNAMGWYRQAPGKERELVAAISTGGSTNYADSVKGRFTISRDNAKNTVYLQMNSLKPEDTAVYYCAADWHRSYGAYDYWGQGTQVNVSS	low polyreactivity
QVQLVESGGGLVQAGGSLRLSWAASGFTFKYYDMGWYRLAPGQERELVAAIDTSGGNTYYADSVKGRFTISRDNAKNTGYVQMNSLKPEETAVDYCAATVPYYHDDYWGQGTQVTVSS	low polyreactivity
QVQLVESGGGLVQAGGSLRLSWAASGITLHGYAMGWYRQAPGKERELVAAITGSGGRTYYADSVKGRFTISRDNAKNTVYLQMNSLKPEDTAVYYCNAGAVYWGYSRGWYERDYWGQGTQVTVSS	high polyreactivity
QVQLVESGGGLVQAGGSLRLSWAASGRIFIGYPMGWYRQAPGKERELVAAISRNGDNTYYADSVKGRFTISRDNAKNTVYLQMNSLKPEDSAVYYCAAVAYPREWKLSYEDGSWGYDYWGQGTQVTVSS	low polyreactivity
QVQLVESGGGLVQAGGSLRLSWAASGRIFYFYAMGWYRQAPGKERELVASISSGGITNYADSVKGRFTISRDNAKNTVYLQMNSLKPEDTAVYYCNAGYASGKYSGGYLYGYWGQGTQVTVSS	low polyreactivity
QVQLVESGGGLVQAGGSLRLSWAASGSIFFFNAMGWYRQAPGKEREFVAAITSSSGRTYYADSVKGRFTISRDNAKNTVYLQMNRLKPEDTAVYYCAAQVPEDTETVDYWGQGTQVTVSS	low polyreactivity
QVQLVESGGGLVQAGGSLRLSWAASGSIFQVYAMGWYRQAPGKEREFVAAISYSGGGTYYADSVKGRFTISRDNAKNTVYLQMNSLKPEDTAVYYCAADVSGWEYDYWGQGTQVTVSS	low polyreactivity
QVQLVESGGGLVQAGGSLRLSWAASGSTFEYNVMGWYRQAPGKERELVAAITQGDGGSTYYADSVKGRFTISRDNAKKTVYLQKNSLIPEDTAVYYCNAGYFTEYNSWGQGTEVTVSS	high polyreactivity
QVQLVESGGGLVQAGGSLRLSYAASGSTFFFNALGWYRQAPGKERELVATISRDGSTNYADSVKGRFTISRDNAKNTVYLQINSLKPEDTAVYYCAAGWGWPYHQYDYWGQGTQVTVSS	low polyreactivity
QVQLVESGGGLVQAGGSLRLTCAASARTFVGNAMGWYRQAPGKERELVAVITGSGARTYYADSVKGRFTISRDNAKNTVYLQMNSLKPEDTAVYYCAGSGYSGQYRSYYWGQGTQVTVSS	high polyreactivity
QVQLVESGGGLVQAGGSLRLTCAASASIFGSAMGWSRQAPGNEMELVASTTDADSVKGRFTISRDNAKNTVYLQMNSLKPEDTSVYYCAADDWDTVEMEYWGQVTQVTVSS	low polyreactivity
QVQLVESGGGLVQAGGSLRLTCAASASTFKPYAMGWDRQAPGKERELVAAINGSGGDTYYADSVKGRFTISRDNAKTTVYLQMNSLKPEDTAVYYCAAQWGYYNYWYGYWGQGSQVTVSS	low polyreactivity
QVQLVESGGGLVQAGGSLRLTCAASGAIFDSYAMGWYRQAPGKEWQLVASISYRGGSTYYADSVKGRFTISRDHAKNTVYLQKNSLKPEDTAVYYCAATPGYHYRSWRYYYWGQGTLVTVSS	high polyreactivity
QVQLVESGGGLVQAGGSLRLTCAASGFIFKANAMGWYRQAPGKERELVASITFGGDSTYYADSVKGRFTISRDNAKNTVYLHMNSLKPEDTAVYYCNTRRRSYRTYYYWGQGTQVTVLS	low polyreactivity
QVQLVESGGGLVQAGGSLRLTCAASGFIFYNNAMGWYRQAPGKERELVASIRWSGASTYYADSVKGRFTISRDNAKNTVYLQMNSLKPEDTAVYYCAARQSRLNSYFSHRFWRYDYWGQGTQVTVSS	high polyreactivity
QVQLVESGGGLVQAGGSLRLTCAASGFIFYSYAMGWYRQAPGKERELVAAISTSGGSTYYADSVKGRFTISRDNAKNTVYLQMNSLKPEDTAVYYCAVGRKFGRYRVPFVVPYEYWGQGTQVTVSS	high polyreactivity
QVQLVESGGGLVQAGGSLRLTCAASGFTFARYAMGWYRQAPGKERELVAAISSNDNTSYADSVKGRFTISRDNAKNTVYLQMNSLKPEDTAVYDCAKKRYHWYGRYYYWGQGTQLTVSS	high polyreactivity
QVQLVESGGGLVQAGGSLRLTCAASGFTFAYKTMGWYRQAPGKERELVAAISWSGGRTYYADSVKGRFTISRDNAKNTVYLQMNSLKPEHTAVYYCAAEFWNQYGAYDYWGQGTQVTLSS	low polyreactivity
QVQLVESGGGLVQAGGSLRLTCAASGFTFGPYDMGWSRQAPGKERELVAAITDSSGSTHYADSVKGRFTISRDNAKNTVYLQMNSLKPEDTAVYYCAAQLKSHSTYGHDYWGQGTQVTVSS	low polyreactivity
QVQLVESGGGLVQAGGSLRLTCAASGFTFGRYTMGWYRQAPGKERELVAAISGRGSRTYYADSVKGRFTISRDNAKNTVYLQMSSLKPVDTAVYYCAADVNVRSDMDYWGQGTQVTVSS	high polyreactivity

Sequence	polyreactivity (PSR sort gate)
QVQLVESGGGLVQAGGSLRLTCAASGFTFGSYAMGWNRQAPGKERELVAVITRSGRTNYADSVKGRFTISRDNAKNTVYLQMNSLKPEDTAVYYCNADDVDDEVSPDLTEMDYWGQGTQVTVSS	low polyreactivity
QVQLVESGGGLVQAGGSLRLTCAASGFTFPYYAMGWYRQAPGKERELVAAIDWTGGSTYYADSVKGRFTISRDNAKNTVYLQMNSLKPEDTAVYYCNRELTSPRRWHVSRAYDYWGQGTQVTVSS	low polyreactivity
QVQLVESGGGLVQAGGSLRLTCAASGFTFRYYTMGWYRQAPGTERELVARISNRGGSTYYADSVKGRFTISRDNAKNTVYLQMNSLKPEDTAVFYCAAARRYYTYYREDYYYWGQGTQVTVSS	high polyreactivity
QVQLVESGGGLVQAGGSLRLTCAASGFTFSPNAMGWYRQAPGKERELVAAIDWSGDRTYYADSVKGRFTISRDNAKNTVYLQMNSLKPEDTAVYYCNVVGRSPGDYSYYYSGQGTQVTVSS	low polyreactivity
QVQLVESGGGLVQAGGSLRLTCAASGGIFGINAMRWYRQAPGKERELVAAITSGDSTNYADSVKGRFTISRDNAKNTVYLQMNSLKPEDTAVYYCNADPDTYVSTITHDSWGQGTQVTVSS	low polyreactivity
QVQLVESGGGLVQAGGSLRLTCAASGGILGYYAMGWYRQEQGKERELVAAISSSVGRTYYADSVKGRFTISRDNAKNSVFLQMNSLKPEDTAVYYCNKDIGRSYNYWGQGTQVTVSS	high polyreactivity
QVQLVESGGGLVQAGGSLRLTCAASGIIFDTNAMGWYRQAPGKERELVATITQRGGTTYYADSVKGRFTISRDNAKNTVYLQMNSLKPEDTAVYYCNAGPVRLPYDSWGQGTQVTVSS	low polyreactivity
QVQLVESGGGLVQAGGSLRLTCAASGITFGVYAMGGYRQAPGKERELVAAITRGGRTYYADSVKGRFTISRDNAKNTVYLQMNSLKPVDTAVYYCAAGFWWSSYGYWGQGTQVTVSS	high polyreactivity
QVQLVESGGGLVQAGGSLRLTCAASGITFTIYAMGWYRLATGKERELVAAISWSGTSTYYADSVKGRFTISRDNAKNTVYLKMNSLKQEDTAVYYCAADYTTSQGDSELDYWGQGTQVTVSS	low polyreactivity
QVQLVESGGGLVQAGGSLRLTCAASGIYFTDYAMGWYRQAPGKERELVAAISGIGSTTYYADSVKGRFTISRDNAKNTVYLQMNSLKPEDTAVYYCNALLAYTYWYDYWGQGTQVSVSS	high polyreactivity
QVQLVESGGGLVQAGGSLRLTCAASGLIFGVYAMGWYRQAPGKEMELVAGISWRGSSTYYADSVKGRFTISRDYAKNTVYLQMNSLIPEDTAVYYCADVRRPSRHAYGGTAVYYWGQGTQVTVSS	high polyreactivity
QVQLVESGGGLVQAGGSLRLTCAASGLTFEYYAMGWYRQAPGKERELVARISKSGVGTNYADSVKGRFTISRDHAKNTVYLQMNSLKPEDNAVYSCAARKYHYGYGYWGQGTQVTVSS	high polyreactivity
QVQLVESGGGLVQAGGSLRLTCAASGNTFYPYAMGWYRQGPGKERELVAAITSSGGSTYYADSVKGRFTISRDNANNTVYLQMNSLKPEDTAVYYCAADPDWYSPFKYVYWGQGTQVTVSS	low polyreactivity
QVQLVESGGGLVQAGGSLRLTCAASGRIFAHYAMGWYRPAPGKERELVAAISSGGSTYYADSVKGRFTISRDNAKNTVYLLMNSLKPEDTAVYYCNKRPVRRKYDYWGQGTQVTVSS	low polyreactivity
QVQLVESGGGLVQAGGSLRLTCAASGRIFAYYAMGWSRQAPGKERELVAAISSGGTTNYADSVKGRFTISRDNAKNTVYLQLTSLKPEDTAVYYCNADGWRRSRQYYYWGQGTQVTVSS	low polyreactivity
QVQLVESGGGLVQAGGSLRLTCAASGRIFGLYAMGWSRQAPGKERELVAAISVISTGTYYADSVKGRFTISRDNAKNTVYLQMNSLKPEDTAVYYCNADSGQYTPPESDYWGQGTQVTVSS	low polyreactivity
QVQLVESGGGLVQAGGSLRLTCAASGRIFGRYAMGWYRQAPAKERELVATITYSGGTTYYADSVKGRFTISRDNAKNTVYLQMNSLKPEDTAVYYCNARSGRQLARYGYWGQGTQVTVSS	high polyreactivity
QVQLVESGGGLVQAGGSLRLTCAASGRIFGWYAMGWYRQAPGKEREFVAAITVTGGSTYYADSVKGRFTISRDNAKNTVYLQMNSLKPEDTAVYYCAADRWYTRTGFDYWGQGTQVTVSS	low polyreactivity
QVQLVESGGGLVQAGGSLRLTCAASGRIFIGNAMGWYRQAPGKERELVAAISSGGSTDYADSVKGRFTISRDNAKNTVYLQMNSLKPEDTAVYYCNADYEGYYDYGYWGQGTQVTVSS	low polyreactivity
QVQLVESGGGLVQAGGSLRLTCAASGRIFIYYAMGWYRQAPGKERELVAAISWGGGRTYYADSVKGRFTISRDNAKNTVYLQINSLKPEDTAVYYCAAGVYTGQHEYDYWGQGTQVTVSS	low polyreactivity
QVQLVESGGGLVQAGGSLRLTCAASGRIFRKYAMGWYRQAPGKERELVAAISNGGSTNYADSVKGRFTISRDNAKNTVYLQMNSLKPEDTAVYYCAASYRIYRGDSTGFGYWGQGTQVTVSS	high polyreactivity
